Results taken from the supplement of paper PMC10567573.

B1: PTPRD (parent)
chain: MVHVARLLLLLLTFFLRTDAETPP
B2: CDC25A (parent)
chain: KPIVPTDGKRVIVVFHCEFSSERG

Variants of: B1
Assay: protein stability index of a GFP-peptide fusion (GPS, HEK-293T) (PSI 1-6); higher = more stable
Conditions: c terminus: a fixed tail appended
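Note: lentivirally expressed fusions sorted by FACS into six bins by GFP to DsRed ratio, PSI derived from sequencing read proportions per bin multiplied by bin number.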

Variant	protein stability index
MVHVARLLLLLCTFFLRTDAETPP [L12C]	3.16
MVHVARLLLLLDTFFLRTDAETPP [L12D]	1.57
MVHVARLLLLLETFFLRTDAETPP [L12E]	2.51
MVHVARLLLLLFTFFLRTDAETPP [L12F]	3
MVHVARLLLLLGTFFLRTDAETPP [L12G]	2.46
MVHVARLLLLLHTFFLRTDAETPP [L12H]	1.58
MVHVARLLLLLITFFLRTDAETPP [L12I]	2.03
MVHVARLLLLLKTFFLRTDAETPP [L12K]	2.63
MVHVARLLLLLNTFFLRTDAETPP [L12N]	2.12
MVHVARLLLLLPTFFLRTDAETPP [L12P]	2.19
MVHVARLLLLLQTFFLRTDAETPP [L12Q]	2.2
MVHVARLLLLLRTFFLRTDAETPP [L12R]	2.03
MVHVARLLLLLSTFFLRTDAETPP [L12S]	2.3
MVHVARLLLLLVTFFLRTDAETPP [L12V]	1.57
MVHVARLLLLLWTFFLRTDAETPP [L12W]	2.53
MVHVARLLLLLYTFFLRTDAETPP [L12Y]	3.69
MVHVARLLLLLLGFFLRTDAETPP [T13G]	2.01
MVHVARLLLLLLHFFLRTDAETPP [T13H]	1.77
MVHVARLLLLLLIFFLRTDAETPP [T13I]	4.2
MVHVARLLLLLLKFFLRTDAETPP [T13K]	2.03
MVHVARLLLLLLMFFLRTDAETPP [T13M]	3.59
MVHVARLLLLLLNFFLRTDAETPP [T13N]	2.05
MVHVARLLLLLLPFFLRTDAETPP [T13P]	2.14
MVHVARLLLLLLQFFLRTDAETPP [T13Q]	1.32
MVHVARLLLLLLRFFLRTDAETPP [T13R]	2.04
MVHVARLLLLLLSFFLRTDAETPP [T13S]	2.31

Variant	protein stability index
MVHVARLLLLLLWFFLRTDAETPP [T13W]	3.29
MVHVARLLLLLLTAFLRTDAETPP [F14A]	1.93
MVHVARLLLLLLTCFLRTDAETPP [F14C]	1.47
MVHVARLLLLLLTDFLRTDAETPP [F14D]	1.79
MVHVARLLLLLLTEFLRTDAETPP [F14E]	1.57
MVHVARLLLLLLTGFLRTDAETPP [F14G]	1.48
MVHVARLLLLLLTHFLRTDAETPP [F14H]	1.25
MVHVARLLLLLLTIFLRTDAETPP [F14I]	2.56
MVHVARLLLLLLTKFLRTDAETPP [F14K]	1.61
MVHVARLLLLLLTLFLRTDAETPP [F14L]	1.98
MVHVARLLLLLLTMFLRTDAETPP [F14M]	3.79
MVHVARLLLLLLTNFLRTDAETPP [F14N]	2.07
MVHVARLLLLLLTPFLRTDAETPP [F14P]	2.45
MVHVARLLLLLLTQFLRTDAETPP [F14Q]	2.15
MVHVARLLLLLLTRFLRTDAETPP [F14R]	1.98
MVHVARLLLLLLTSFLRTDAETPP [F14S]	1.99
MVHVARLLLLLLTYFLRTDAETPP [F14Y]	1.86
MVHVARLLLLLLTFDLRTDAETPP [F15D]	2.02
MVHVARLLLLLLTFELRTDAETPP [F15E]	2.21
MVHVARLLLLLLTFHLRTDAETPP [F15H]	4.29
MVHVARLLLLLLTFILRTDAETPP [F15I]	2.25
MVHVARLLLLLLTFLLRTDAETPP [F15L]	2.13
MVHVARLLLLLLTFMLRTDAETPP [F15M]	2.34
MVHVARLLLLLLTFNLRTDAETPP [F15N]	3.47
MVHVARLLLLLLTFPLRTDAETPP [F15P]	2.01
MVHVARLLLLLLTFVLRTDAETPP [F15V]	2.2

Variant	protein stability index
MVHVARLLLLLLTFWLRTDAETPP [F15W]	2.81
MVHVARLLLLLLTFYLRTDAETPP [F15Y]	3
MVHVARLLLLLLTFFARTDAETPP [L16A]	1.49
MVHVARLLLLLLTFFDRTDAETPP [L16D]	3.53
MVHVARLLLLLLTFFERTDAETPP [L16E]	3.34
MVHVARLLLLLLTFFFRTDAETPP [L16F]	1.37
MVHVARLLLLLLTFFGRTDAETPP [L16G]	2.65
MVHVARLLLLLLTFFHRTDAETPP [L16H]	2.35
MVHVARLLLLLLTFFKRTDAETPP [L16K]	1.72
MVHVARLLLLLLTFFMRTDAETPP [L16M]	4.18
MVHVARLLLLLLTFFNRTDAETPP [L16N]	2.12
MVHVARLLLLLLTFFPRTDAETPP [L16P]	2.65
MVHVARLLLLLLTFFQRTDAETPP [L16Q]	1.74
MVHVARLLLLLLTFFRRTDAETPP [L16R]	1.72
MVHVARLLLLLLTFFSRTDAETPP [L16S]	2.22
MVHVARLLLLLLTFFTRTDAETPP [L16T]	2.68
MVHVARLLLLLLTFFWRTDAETPP [L16W]	1.81
MVHVARLLLLLLTFFYRTDAETPP [L16Y]	1.52
MVHVARLLLLLLTFFLDTDAETPP [R17D]	2.22
MVHVARLLLLLLTFFLETDAETPP [R17E]	1.62
MVHVARLLLLLLTFFLFTDAETPP [R17F]	2.87
MVHVARLLLLLLTFFLITDAETPP [R17I]	2.17
MVHVARLLLLLLTFFLLTDAETPP [R17L]	2.77
MVHVARLLLLLLTFFLNTDAETPP [R17N]	3.08
MVHVARLLLLLLTFFLPTDAETPP [R17P]	1.87
MVHVARLLLLLLTFFLQTDAETPP [R17Q]	1.92

Variant	protein stability index
MVHVARLLLLLLTFFLTTDAETPP [R17T]	2.79
MVHVARLLLLLLTFFLVTDAETPP [R17V]	2.9
MVHVARLLLLLLTFFLYTDAETPP [R17Y]	2.3
MVHVARLLLLLLTFFLRCDAETPP [T18C]	1.86
MVHVARLLLLLLTFFLRDDAETPP [T18D]	2.18
MVHVARLLLLLLTFFLREDAETPP [T18E]	2.04
MVHVARLLLLLLTFFLRFDAETPP [T18F]	3.28
MVHVARLLLLLLTFFLRGDAETPP [T18G]	2.47
MVHVARLLLLLLTFFLRHDAETPP [T18H]	2.3
MVHVARLLLLLLTFFLRKDAETPP [T18K]	3.74
MVHVARLLLLLLTFFLRMDAETPP [T18M]	2.62
MVHVARLLLLLLTFFLRNDAETPP [T18N]	2.38
MVHVARLLLLLLTFFLRRDAETPP [T18R]	3.3
MVHVARLLLLLLTFFLRSDAETPP [T18S]	2.48
MVHVARLLLLLLTFFLRVDAETPP [T18V]	2.63
MVHVARLLLLLLTFFLRYDAETPP [T18Y]	2.88
MVHVARLLLLLLTFFLRTAAETPP [D19A]	2.91
MVHVARLLLLLLTFFLRTCAETPP [D19C]	4.03
MVHVARLLLLLLTFFLRTFAETPP [D19F]	3.69
MVHVARLLLLLLTFFLRTIAETPP [D19I]	2.41
MVHVARLLLLLLTFFLRTKAETPP [D19K]	2.29
MVHVARLLLLLLTFFLRTLAETPP [D19L]	2.71
MVHVARLLLLLLTFFLRTNAETPP [D19N]	2.96
MVHVARLLLLLLTFFLRTQAETPP [D19Q]	2.75
MVHVARLLLLLLTFFLRTSAETPP [D19S]	1.84
MVHVARLLLLLLTFFLRTVAETPP [D19V]	3.32

Variant	protein stability index
MVHVARLLLLLLTFFLRTDDETPP [A20D]	1.29
MVHVARLLLLLLTFFLRTDEETPP [A20E]	2.48
MVHVARLLLLLLTFFLRTDFETPP [A20F]	1.84
MVHVARLLLLLLTFFLRTDGETPP [A20G]	1.84
MVHVARLLLLLLTFFLRTDHETPP [A20H]	3.11
MVHVARLLLLLLTFFLRTDIETPP [A20I]	1.81
MVHVARLLLLLLTFFLRTDLETPP [A20L]	2.99
MVHVARLLLLLLTFFLRTDQETPP [A20Q]	2.29
MVHVARLLLLLLTFFLRTDAATPP [E21A]	3.13
MVHVARLLLLLLTFFLRTDACTPP [E21C]	2.82
MVHVARLLLLLLTFFLRTDAFTPP [E21F]	3.22
MVHVARLLLLLLTFFLRTDAKTPP [E21K]	2.66
MVHVARLLLLLLTFFLRTDALTPP [E21L]	2.79
MVHVARLLLLLLTFFLRTDAMTPP [E21M]	3.64
MVHVARLLLLLLTFFLRTDAQTPP [E21Q]	4.35
MVHVARLLLLLLTFFLRTDAVTPP [E21V]	2.83
MVHVARLLLLLLTFFLRTDAYTPP [E21Y]	2.55
MVHVARLLLLLLTFFLRTDAEDPP [T22D]	2.81
MVHVARLLLLLLTFFLRTDAEEPP [T22E]	2.08
MVHVARLLLLLLTFFLRTDAEFPP [T22F]	1.95
MVHVARLLLLLLTFFLRTDAEHPP [T22H]	2.36
MVHVARLLLLLLTFFLRTDAENPP [T22N]	2.05
MVHVARLLLLLLTFFLRTDAERPP [T22R]	3.51
MVHVARLLLLLLTFFLRTDAESPP [T22S]	4.07
MVHVARLLLLLLTFFLRTDAEVPP [T22V]	3.03
MVHVARLLLLLLTFFLRTDAEWPP [T22W]	5.11

Variant	protein stability index
MVHVARLLLLLLTFFLRTDAETAP [P23A]	2.42
MVHVARLLLLLLTFFLRTDAETEP [P23E]	2.31
MVHVARLLLLLLTFFLRTDAETFP [P23F]	2.96
MVHVARLLLLLLTFFLRTDAETMP [P23M]	2.86
MVHVARLLLLLLTFFLRTDAETNP [P23N]	2.49
MVHVARLLLLLLTFFLRTDAETQP [P23Q]	3.52
MVHVARLLLLLLTFFLRTDAETRP [P23R]	3.55
MVHVARLLLLLLTFFLRTDAETSP [P23S]	2.84
MVHVARLLLLLLTFFLRTDAETTP [P23T]	1.86
MVHVARLLLLLLTFFLRTDAETVP [P23V]	2.46
MVHVARLLLLLLTFFLRTDAETYP [P23Y]	3.76
MVHVARLLLLLLTFFLRTDAETPA [P24A]	3.4
MVHVARLLLLLLTFFLRTDAETPC [P24C]	4.5
MVHVARLLLLLLTFFLRTDAETPD [P24D]	2.73
MVHVARLLLLLLTFFLRTDAETPF [P24F]	1.99
MVHVARLLLLLLTFFLRTDAETPI [P24I]	2.26
MVHVARLLLLLLTFFLRTDAETPL [P24L]	2.27
MVHVARLLLLLLTFFLRTDAETPM [P24M]	3.61
MVHVARLLLLLLTFFLRTDAETPN [P24N]	1.73
MVHVARLLLLLLTFFLRTDAETPQ [P24Q]	3.53
MVHVARLLLLLLTFFLRTDAETPS [P24S]	4.91
MVHVARLLLLLLTFFLRTDAETPT [P24T]	3.52
MVHVARLLLLLLTFFLRTDAETPV [P24V]	2.77
MVHVARLLLLLLTFFLRTDAETPY [P24Y]	2.67

Variants of: B2
Assay: as above
Conditions: c terminus: a fixed tail appended

Variant	protein stability index
KPIVDTDGKRVIVVFHCEFSSERG [P5D]	1.33
KPIVPTDGKRVIAVFHCEFSSERG [V13A]	2.28
KPIVPTDGKRVIVVEHCEFSSERG [F15E]	4.32
KPIVPTDGKRVIVVFHCEFSSYRG [E22Y]	3.49
TPIVPTDGKRVIVVFHCEFSSERG [K1T]	1.98
KPIVPTDGKRVIVVFHVEFSSERG [C17V]	2.73
KPIVPTDGKRVIVVFHCEFLSERG [S20L]	2.5
KPIVPTDGKRVIVVCHCEFSSERG [F15C]	1.68
KPIVPTDGKRVIVNFHCEFSSERG [V14N]	2.35
KPIVPTDGKRVIVVFHCYFSSERG [E18Y]	2.26
KPIVPHDGKRVIVVFHCEFSSERG [T6H]	2.71
KPVVPTDGKRVIVVFHCEFSSERG [I3V]	2.43
KPIVPTDGPRVIVVFHCEFSSERG [K9P]	1.94
KPIVPTDGKRVIVVFHCEYSSERG [F19Y]	1.89
KPIVPTDGKRVNVVFHCEFSSERG [I12N]	2.99
KPIVPTDGKRVIVVFHCEFSSERK [G24K]	1.44
KPIVPTDGKRVINVFHCEFSSERG [V13N]	3.57

Variant	protein stability index
KPIVPTDGKRVIIVFHCEFSSERG [V13I]	3.19
KPIVPTDGKRKIVVFHCEFSSERG [V11K]	2.51
KPIVPTDGKRVIVVFHCEFYSERG [S20Y]	2.42
KPIVPTDGKYVIVVFHCEFSSERG [R10Y]	2.95
KPIVPTDGKRVIVPFHCEFSSERG [V14P]	3.44
KPDVPTDGKRVIVVFHCEFSSERG [I3D]	1.76
KPIVPKDGKRVIVVFHCEFSSERG [T6K]	1.83
KPIIPTDGKRVIVVFHCEFSSERG [V4I]	2.57
KPIVPTDGKRVIVVFHCEFSSCRG [E22C]	2.52
KPIVPTDGKRVIVVFHCESSSERG [F19S]	2.27
KPIVPTDGKRVIVVFHLEFSSERG [C17L]	2.12
KPIVPTDGKRVIVGFHCEFSSERG [V14G]	2.69
KPIVPTDGKRVIVVFHKEFSSERG [C17K]	2.33
KPIVHTDGKRVIVVFHCEFSSERG [P5H]	1.5
KDIVPTDGKRVIVVFHCEFSSERG [P2D]	1.61
KPIVPTDGKRVIVVFHCEFSSERH [G24H]	3.36
KPIVPPDGKRVIVVFHCEFSSERG [T6P]	1.95
